# Assay results reported in patent US20160053025A1 (SAMSUNG ELECTRONICS, published 2016).
# T1: recombinant hAng-2 (C-His, R&D Systems) (human, UniProt O15123 19-496)
# T1 construct: Bought protein; also called human Ang-2 protein; C-terminal histidine-tagged human Ang2 (R&D Systems); not shown: C-terminal His tag
# T1 sequence: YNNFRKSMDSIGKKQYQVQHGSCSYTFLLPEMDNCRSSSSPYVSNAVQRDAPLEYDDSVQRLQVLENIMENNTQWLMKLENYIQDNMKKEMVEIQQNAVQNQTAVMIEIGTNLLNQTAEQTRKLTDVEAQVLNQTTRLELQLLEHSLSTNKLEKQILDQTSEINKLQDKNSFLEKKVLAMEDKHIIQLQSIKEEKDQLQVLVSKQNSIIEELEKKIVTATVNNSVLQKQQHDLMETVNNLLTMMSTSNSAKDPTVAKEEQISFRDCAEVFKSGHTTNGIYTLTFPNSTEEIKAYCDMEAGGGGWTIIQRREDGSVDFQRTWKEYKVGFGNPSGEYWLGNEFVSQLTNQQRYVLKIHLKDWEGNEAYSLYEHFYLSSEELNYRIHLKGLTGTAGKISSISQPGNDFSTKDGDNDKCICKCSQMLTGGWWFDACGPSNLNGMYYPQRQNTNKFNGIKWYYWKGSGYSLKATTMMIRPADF
# T2: Ang2 protein (R&D systems) (human, UniProt O15123 19-496)
# T2 sequence: T1 sequence
# T3: Ang2 RBD Y460A, FLAG-tagged (human, UniProt O15123 281-496, limits assumed)
# T3 chain: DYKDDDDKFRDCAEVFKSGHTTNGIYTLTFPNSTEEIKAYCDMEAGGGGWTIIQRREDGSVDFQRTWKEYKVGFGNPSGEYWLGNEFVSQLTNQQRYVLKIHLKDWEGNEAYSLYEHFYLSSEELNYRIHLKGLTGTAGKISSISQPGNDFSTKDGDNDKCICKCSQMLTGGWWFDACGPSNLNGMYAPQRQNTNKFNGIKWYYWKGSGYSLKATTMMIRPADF
# B1: SAIT-ANG2-AB-m10D6 (antibody, V domains shown)
# VH: DVQLQESGPDLVKPSQSLSLTCTVTGYSITSDYAWNWIRQFPGNKLEWMGYINYSGNTDYNPSLKSRSSITRDTSKNQFFLQLNSVTTGDTATYYCARGNFEGAMDYWGQGTSVTVSS
# VL: SIVMTQTPKFLLVSAGDRVTITCKASQSVSNDVAWYQQKPGQSPKLLIYYASNRYPGVPDRFTGSGYGTDFTFTISTVQAEDLAVYFCQQDYSSPWTFGGGTKLEIK
# notes: Mouse monoclonal antibody purified from a hybridoma (KCLRF-BP-00295); it is not applied here; also called mouse antibody 10D6; 10D6 antibody
# Tests used:
# [1] = target: Ang2 RBD A449 mutant (with alanine), FLAG-tagged (human) (UniProt O15123); assay: ELISA, antibody coated, FLAG-tagged mutant Ang2 RBD detected with anti-FLAG-HRP
# [2] = target: T1, recombinant hAng-2 (C-His, R&D Systems); assay: SPR, BIAcore T100; hAng2 (C-His) captured by anti-His antibody on CM5, antibody as analyte
# Description: The binding affinity (KD values) of the antibodies to human Ang2 protein was measured by an SPR method using a BIAcore T100 (GE Healthcare). 25 μg/ml anti-His antibody was immobilized on a CM5 sensor chip (GE healthcare) using a pH 5.0 acetate solution and an amine coupling kit (GE Healthcare). 6 μg/ml of a recombinant hAng2 (C-His, R&D Systems) protein was flowed onto the chip to be captured at 100 to 200 RU levels.
# [3] = target: T1, recombinant hAng-2 (C-His, R&D Systems); assay: SPR, BIAcore T100; hAng-2 (C-His) captured by anti-His antibody on CM5, antibody as analyte
# Description: First, anti-His antibody was immobilized on a CM5 sensor chip (GE healthcare) up to 8,000 RU levels using a pH 5.0 acetate solution and an amine coupling kit (GE Healthcare). 6 μg/ml of a recombinant hAng-2 (C-His, R&D Systems) protein was flowed onto the chip to be captured at 100 to 200 RU levels.
# [4] = target: T2, Ang2 protein (R&D systems); assay: cell-based or functional assay
# [5] = target: T4, hTie2-Fc (R&D Systems) (human, UniProt Q02763 23-745); assay: Complex ELISA: plate coated with Tie2-Fc (4 ug/ml), 10D6 2 ug/ml without Ang2, anti-mouse IgG-HRP, OD450
# T4 construct: Bought fusion protein; also called hTie-2/Fc fusion protein; not shown: Fc of human IgG1
# T4 sequence (Q02763 23-745 limits assumed): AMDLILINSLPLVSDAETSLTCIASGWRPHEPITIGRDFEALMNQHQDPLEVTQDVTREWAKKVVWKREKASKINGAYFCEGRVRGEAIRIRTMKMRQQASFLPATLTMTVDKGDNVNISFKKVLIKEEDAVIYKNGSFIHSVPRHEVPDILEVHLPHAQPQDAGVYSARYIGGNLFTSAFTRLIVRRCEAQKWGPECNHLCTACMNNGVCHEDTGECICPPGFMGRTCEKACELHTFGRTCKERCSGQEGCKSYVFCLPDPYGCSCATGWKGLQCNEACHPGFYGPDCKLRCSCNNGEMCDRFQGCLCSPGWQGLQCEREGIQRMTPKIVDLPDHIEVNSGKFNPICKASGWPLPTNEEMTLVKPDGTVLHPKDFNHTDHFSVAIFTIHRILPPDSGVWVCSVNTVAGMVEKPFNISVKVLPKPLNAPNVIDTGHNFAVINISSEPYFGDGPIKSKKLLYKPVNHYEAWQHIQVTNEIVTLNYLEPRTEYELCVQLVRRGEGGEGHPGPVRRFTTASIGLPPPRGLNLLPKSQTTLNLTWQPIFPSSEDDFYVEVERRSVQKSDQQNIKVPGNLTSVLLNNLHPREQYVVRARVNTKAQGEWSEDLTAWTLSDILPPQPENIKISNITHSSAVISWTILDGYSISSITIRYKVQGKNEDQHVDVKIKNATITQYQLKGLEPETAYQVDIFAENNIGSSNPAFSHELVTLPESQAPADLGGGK
# Description: A 96-well MaxiSorp™ flat-bottom plate (Nunc) was coated with 4 μg/ml of Tie2-Fc (R&D systems) or BSA (Sigma). Then, the plate was washed five times with 0.05% (v/v) Tween-20-containing PBS (Phosphate Buffer Saline) and blocked with 1% (v/v) BSA (Bovine serum albumin; Sigma)-containing PBS at a room temperature for 2 hours. […] After that, an anti-mouse IgG antibody (Sigma) conjugated with HRP diluted in 1% (v/v) BSA-containing PBS at a ratio of 1:5,000 (v/v) was added in an amount of 100 ul to each well to react at a room temperature for 1 hour and then, the plate was washed five times with PBST. Lastly, 100 ul (microliter) of TMB substrate (Cell Signaling) was added to each well of the plate to induce color development for 3 min. and then, the reaction was ceased by the addition of 100 ul of Stop solution (Cell Signaling) and OD450 values were measured on a plate reader (Molecular Devices).
# [6] = target: T3, Ang2 RBD Y460A, FLAG-tagged; assay: ELISA, antibody coated, FLAG-tagged mutant Ang2 RBD detected with anti-FLAG-HRP
# Description: To verify the epitope (or specific binding site) of the anti-Ang2 antibody prepared in Reference Example 2.3, an ELISA was performed using a recombinant protein where a receptor binding domain (RBD) of Ang2 protein in the form of being tagged with Flag was mutated by artificial means.
# Each well of a 96-well MaxiSorp™ flat-bottom plate (Nunc) was coated with 50 ul (microliter) of 1000 nM antibody. Then, the plate was washed five times with 0.05% (v/v) Tween-20-containing PBS (PBST) and blocked with 1% (v/v) BSA-containing PBS at a room temperature for 2 hours. 250 ng of each mutant Ang2 protein obtained by substituting S417, Q418, P419, N421, 1434, D448, A449, P452, Y460, N467, K468, or F469 residue of Ang2 protein tagged with a FLAG sequence ([…], Sigma) at its N-terminal with alanine was added to each well of the plate, which was then allowed to react at a room temperature for 2 hours.
# Finally, 50 ul of TMB substrates (Cell signaling) was added to each well of the plate to induce color development at a room temperature for 3 min. and the reaction was ceased by the addition of 50 ul of Stop solution (Cell signaling) and then, OD450 values were measured on a plate reader (Molecular Devices). By comparing binding affinities with mutated Ang2 to those of unmutated Ang2, each epitope of Ang2 antibodies was identified. The obtained measurement results of the binding affinities (%) with mutant Ang2 against the binding affinity with the native Ang2 are shown in the following Table 13.
binder,measurement,setting,value
B1,binding affinity (%) with mutant Ang2 against the binding affinity with the native Ang2,[1],97.9%
same,Kd,[2],8 nM
same,koff,[2],0.000193 s⁻¹
same,kon,[2],24100 M⁻¹ s⁻¹
same,Kd,[3],8 nM
same,Tie2 phosphorylation effect against control antibody RG,[4],~8.6 fold
same,"Tie2 phosphorylation level (pTyr/Tie2 ratio, HUVEC, 60 nM antibody)",[4],180%
same,binding result,[5],no binding (tested: 2 ug/ml)
same,binding affinity (%) with mutant Ang2 against the binding affinity with the native Ang2,[6],103%
